According to article PMC8092299, “Bifunctional Malic/Malolactic Enzyme Provides a Novel Mechanism for NADPH-Balancing in Bacillus subtilis” (mBio, 2021):

T1: MaeB (Escherichia coli, UniProt P76558)
T1 construct: His-tagged from ASKA His tag collection library, overexpressed in E. coli, Ni-NTA purified, tag kept
T1 sequence (P76558 1-759): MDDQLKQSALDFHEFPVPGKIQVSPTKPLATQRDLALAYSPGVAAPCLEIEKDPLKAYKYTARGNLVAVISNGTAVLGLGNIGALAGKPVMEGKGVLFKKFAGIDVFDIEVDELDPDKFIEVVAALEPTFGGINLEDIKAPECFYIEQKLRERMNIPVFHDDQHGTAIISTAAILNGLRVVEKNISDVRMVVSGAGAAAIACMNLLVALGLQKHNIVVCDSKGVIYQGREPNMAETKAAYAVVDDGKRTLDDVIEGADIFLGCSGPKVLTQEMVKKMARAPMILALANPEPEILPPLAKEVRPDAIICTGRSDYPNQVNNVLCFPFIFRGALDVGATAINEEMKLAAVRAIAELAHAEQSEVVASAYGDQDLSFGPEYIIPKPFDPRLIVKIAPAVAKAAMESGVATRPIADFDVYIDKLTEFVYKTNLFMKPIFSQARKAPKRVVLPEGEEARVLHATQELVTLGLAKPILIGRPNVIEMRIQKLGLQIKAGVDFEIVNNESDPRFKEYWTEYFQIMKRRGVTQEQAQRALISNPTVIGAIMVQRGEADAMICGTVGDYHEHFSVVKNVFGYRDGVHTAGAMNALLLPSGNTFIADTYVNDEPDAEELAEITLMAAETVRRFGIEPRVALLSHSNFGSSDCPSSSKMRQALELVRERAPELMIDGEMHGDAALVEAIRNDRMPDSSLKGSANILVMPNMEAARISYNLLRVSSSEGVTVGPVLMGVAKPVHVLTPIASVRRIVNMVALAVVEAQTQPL

B1: YtsJ (Bacillus subtilis subsp. subtilis str. 168) (protein)
chain: MSLREEALHLHKVNQGKLESKSKVEVRNAKDLSLAYSPGVAEPCKDIHEDINKVYDYTMKGNMVAVVTDGTAVLGLGNIGPEAALPVMEGKAVLFKSFAGVDAFPIALNTNDVDKIVETVKLLEPTFGGVNLEDIAAPNCFIIEERLKKETNIPVFHDDQHGTAIVTVAGLVNALKLSGKSMSSIKVVANGAGAAGIAIIKLLHHYGVRDIVMCDSKGAIYEGRPNGMNDVKNEVAKFTNQDRKDGSLKDVIVDADVFIGVSVAGALTKEMVQSMAKDPIIFAMANPNPEIMPEDAREAGASVVGTGRSDFPNQVNNVLAFPGIFRGALDVRATHINEEMKIAAVEAIASLVSEDELSADYVIPAPFDKRVAPAVAKAVAKAAMETGVARITVDPEEVAEKTRKLTIIGE
notes: His6-tagged, overexpressed in E. coli (QIAexpress), Ni-NTA purified, tag kept

Assays:
MaeB = target: T1, MaeB; test: flow-injection TOF MS, lactate formation (malolactic activity); type: biochemical; conditions: NAD+, malate, pyruvate and 1 mM NADPH; 10 mM potassium phosphate pH 7.4, 2.5 mM MgCl2, 50 mM KCl, 1 mM NaHCO3, room temperature
purified protein [1] = substrate: NC(=O)C1=CN([C@@H]2O[C@H](COP(=O)(O)OP(=O)(O)OC[C@H]3O[C@@H](n4cnc5c(N)ncnc54)[C@H](OP(=O)(O)O)[C@@H]3O)[C@@H](O)[C@H]2O)C=CC1; test: purified protein; type: biochemical, Bacillus subtilis; conditions: reductive carboxylation, 20 mM pyruvate, 50 mM NaHCO3, 5 mM MgCl2, 50 mM KCl, 100 mM Tris-HCl pH 7.8, 37°C, varied: cofactor
purified protein [2] = substrate: CC(=O)C(=O)O; test: purified protein; type: biochemical, Bacillus subtilis; conditions: reductive carboxylation, NADH and NADPH both added at 0.2 mM, 50 mM NaHCO3, 5 mM MgCl2, 50 mM KCl, 100 mM Tris-HCl pH 7.8, 37°C

Molecule	flow-injection TOF MS, lactate formation (malolactic activity) (MaeB)	Km (purified protein [1]) [mM]	Km (purified protein [2]) [mM]
O=C(O)C[C@H](O)C(=O)O [malate]	we observed lactate production and, thus, malolactic activity by MaeB		
B1		0.8 ± 0.5	5.3 ± 1.3
